Experimental data from publication PMC12808120.

Assays:
IGF2BP3 (recombinant) [1] = molecular target: IGF2BP3 (recombinant) (UniProt O00425); experiment: EMSA; conditions: no binding up to 100 nM; Kd >>100 nM; FBA/EMSA: 10 mM Tris-Cl pH 7.5, 50 mM KCl, 1 mM EDTA, 0.05% Triton X, 5% glycerol, 1 mM DTT, 37 C 20 min; pull-down: lysate mixed 1:1 with 2x TENT (100 mM Tris …)
IGF2BP3 (recombinant) [2] = molecular target: IGF2BP3 (recombinant) (UniProt O00425); experiment: filter binding; conditions: FBA/EMSA: 10 mM Tris-Cl pH 7.5, 50 mM KCl, 1 mM EDTA, 0.05% Triton X, 5% glycerol, 1 mM DTT, 37 C 20 min, pull-down: lysate mixed 1:1 with 2x TENT (100 mM Tris …)

Chain of IGF2BP3 (recombinant) (O00425 whole entry): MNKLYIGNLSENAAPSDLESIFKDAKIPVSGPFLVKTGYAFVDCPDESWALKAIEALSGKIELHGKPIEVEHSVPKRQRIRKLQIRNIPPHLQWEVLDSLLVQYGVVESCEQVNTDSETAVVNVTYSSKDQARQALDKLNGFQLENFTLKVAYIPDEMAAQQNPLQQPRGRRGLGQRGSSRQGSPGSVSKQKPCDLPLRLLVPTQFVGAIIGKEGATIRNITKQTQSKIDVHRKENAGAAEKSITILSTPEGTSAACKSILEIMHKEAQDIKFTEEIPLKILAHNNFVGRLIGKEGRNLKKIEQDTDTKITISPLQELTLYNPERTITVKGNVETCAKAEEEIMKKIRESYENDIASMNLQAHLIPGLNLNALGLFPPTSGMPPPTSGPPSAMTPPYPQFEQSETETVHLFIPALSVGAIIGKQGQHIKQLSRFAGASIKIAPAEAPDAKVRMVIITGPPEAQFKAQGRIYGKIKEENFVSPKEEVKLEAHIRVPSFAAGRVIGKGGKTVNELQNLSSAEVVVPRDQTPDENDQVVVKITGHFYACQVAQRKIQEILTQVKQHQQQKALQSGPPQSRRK

| Substance | Kd (IGF2BP3 (recombinant) [1]) [µM] | Kd (IGF2BP3 (recombinant) [2]; no binding up to 100 nM, Kd >>100 nM) [µM] | Kd (IGF2BP3 (recombinant) [2]) [µM] |
| --- | --- | --- | --- |
| UAAUAAUAAUAAUAAUAAUAAUAAUAAUAAUAAUAAUAAUAAUAAUAAUAAUAAUAAUAA [(UAA)20 RNA] | > 0.1 | > 0.1 | – |
| FMR1-5'UTR RNA with 16 CGG repeats (FMR1-16CGG) | – | – | 0.00315 |
